T1: CD73 on A549 cells (UniProt P21589 27-549, limits assumed)
T1 sequence (looked up): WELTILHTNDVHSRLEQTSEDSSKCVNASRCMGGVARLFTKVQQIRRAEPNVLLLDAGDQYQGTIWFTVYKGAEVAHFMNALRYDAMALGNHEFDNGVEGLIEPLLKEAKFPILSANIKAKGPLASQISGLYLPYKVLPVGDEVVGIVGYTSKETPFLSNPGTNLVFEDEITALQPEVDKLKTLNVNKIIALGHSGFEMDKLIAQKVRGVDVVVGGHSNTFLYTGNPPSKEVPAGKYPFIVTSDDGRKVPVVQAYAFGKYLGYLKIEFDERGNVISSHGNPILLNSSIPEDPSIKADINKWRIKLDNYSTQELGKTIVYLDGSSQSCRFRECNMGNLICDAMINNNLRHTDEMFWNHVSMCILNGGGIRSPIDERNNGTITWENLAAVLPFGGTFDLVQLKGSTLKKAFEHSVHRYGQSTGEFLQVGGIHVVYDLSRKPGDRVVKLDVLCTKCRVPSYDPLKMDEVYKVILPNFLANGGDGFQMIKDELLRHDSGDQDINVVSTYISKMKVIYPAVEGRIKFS

T2: recombinant human CD73 protein with C-terminal 6xHis tag (human, UniProt P21589 27-547, limits assumed)
T2 sequence: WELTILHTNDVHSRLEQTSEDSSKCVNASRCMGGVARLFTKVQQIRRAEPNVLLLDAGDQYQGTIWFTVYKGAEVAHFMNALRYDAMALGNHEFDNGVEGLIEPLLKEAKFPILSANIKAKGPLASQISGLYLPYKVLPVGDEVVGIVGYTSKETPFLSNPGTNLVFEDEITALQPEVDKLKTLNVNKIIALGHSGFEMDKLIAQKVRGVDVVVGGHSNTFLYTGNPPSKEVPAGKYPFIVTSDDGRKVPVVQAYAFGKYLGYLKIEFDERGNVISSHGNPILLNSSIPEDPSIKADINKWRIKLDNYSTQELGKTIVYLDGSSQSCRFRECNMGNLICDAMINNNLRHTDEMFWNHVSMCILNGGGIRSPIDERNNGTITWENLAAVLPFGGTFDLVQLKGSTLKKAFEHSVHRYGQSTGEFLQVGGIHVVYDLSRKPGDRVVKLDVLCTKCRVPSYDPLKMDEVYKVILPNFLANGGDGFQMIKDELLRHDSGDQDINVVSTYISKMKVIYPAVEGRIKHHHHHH

B1: anti-human CD73 monoclonal antibody 7-C10-Ba-C2 (antibody, V domains shown)
VH: EVQLQQSGPELVKPGASMKISCKASGYSFTGYTMNWVKQSHGKNLEWIGFITPYNGDTIYNQKFKGKATVTVDKSSSTAYMDLLSLTSEDSAVYYCAREGYDGGYFDYWGQGTTLTVSS
VL: DIQMTQSPASLSASVGETVTITCRASENIYSYLAWYQQKQGKSPQLLVYNTQTLAEGVPSRFSGSGSGTQFSLKINSLQPEDFGSYYCQHHYGTPMYPFGGGTKLEIK
notes: Mouse (BABL/c) hybridoma antibody purified from ascitic fluid; also called antibody of the present invention

Legend:
[1] = target: recombinant human CD73 protein with C-terminal 6xHis tag (human) (UniProt P21589); experiment: cell-based or functional assay
[2] = target: recombinant human CD73 protein with C-terminal 6xHis tag (human) (UniProt P21589); experiment: SPR, Biacore T200, antibody captured on CM5 chip, human CD73 injected, 25 C, 1:1 fit
CD73 on A549 cells = target: T1, CD73 on A549 cells; experiment: cell-based or functional assay
[3] = target: T2, recombinant human CD73 protein with …; experiment: cell-based or functional assay
[4] = target: T2, recombinant human CD73 protein with …; experiment: SPR, Biacore T200, antibody captured by anti-mouse Fc IgG on CM5 chip, human CD73 injected, 25 C, 1:1 fit
Protocol: Mouse Antibody Capture Kit, which is a commercialized reagent kit, was purchased from GE. Anti-mouse Fc IgG was fixated on a CM5 sensor chip by amine coupling in order to capture the antibody under test with the coupled anti-mouse Fc IgG. A series of human CD73 proteins having a predetermined concentration gradient were then injected, before samples were taken and tested with the pH 1.7 glycine-HCl regeneration testing chip that came with the reagent kit.
The binding constant (Ka), the dissociation rate constant (Kd), and the equilibrium constant (KD) were calculated with the Biacore T200 evaluation software by combining the model fitting data at a 1:1 ratio.

Molecule	EC50 (µg/mL), Biochemical level, inhibition of CD73 enzyme activity [1] [µg/mL]	Kd [2] [nM]	koff [2] [s⁻¹]	kon [2] [M⁻¹ s⁻¹]	EC50 (µg/mL), Cell level (A549), inhibition of CD73 enzyme activity (CD73 on A549 cells) [µg/mL]	EC50 (µg/mL), Biochemical level, inhibition of CD73 enzyme activity [3] [µg/mL]	Kd [4] [nM]	koff [4] [s⁻¹]	kon [4] [M⁻¹ s⁻¹]
MEDI-9447, anti-CD73 monoclonal antibody of MedImmune LLC	0.0896	0.141	3.91e-05	278000	0.032				
B1					0.0854	0.106	0.416	3.21e-05	77200

— patent publication US20240368299A1 (JIANGSU KANION PHARMACEUTICAL, published 2024)
